The record followed here is US20110059889A1 (SYNTONIX PHARMACEUTICALS, published 2011).

B1: Peptide No. 295 (peptide)
peptide: QRF[Pen]TGHFG[dP]LYP[Pen]NGP-NH2
modifications: disulfide 4-14; N-terminus assumed
SMILES: CC(C)C[C@@H]1NC(=O)[C@H]2CCCN2C(=O)CNC(=O)[C@H](Cc2ccccc2)NC(=O)[C@H](Cc2c[nH]cn2)NC(=O)CNC(=O)[C@H]([C@@H](C)O)NC(=O)[C@@H](NC(=O)[C@H](Cc2ccccc2)NC(=O)[C@H](CCCNC(=N)N)NC(=O)[C@@H](N)CCC(N)=O)C(C)(C)SSC(C)(C)[C@@H](C(=O)N[C@@H](CC(N)=O)C(=O)NCC(=O)N2CCC[C@H]2C(N)=O)NC(=O)[C@@H]2CCCN2C(=O)[C@H](Cc2ccc(O)cc2)NC1=O
B2: Peptide No. 70 (peptide)
peptide: QRF[hCys]TGHFGGLYP[Pen]NGP-NH2
modifications: disulfide 4-14; N-terminus assumed
SMILES: CC(C)C[C@@H]1NC(=O)CNC(=O)CNC(=O)[C@H](Cc2ccccc2)NC(=O)[C@H](Cc2c[nH]cn2)NC(=O)CNC(=O)[C@H]([C@@H](C)O)NC(=O)[C@@H](NC(=O)[C@H](Cc2ccccc2)NC(=O)[C@H](CCCNC(=N)N)NC(=O)[C@@H](N)CCC(N)=O)CCSSC(C)(C)[C@@H](C(=O)N[C@@H](CC(N)=O)C(=O)NCC(=O)N2CCC[C@H]2C(N)=O)NC(=O)[C@@H]2CCCN2C(=O)[C@H](Cc2ccc(O)cc2)NC1=O
B3: Peptide No. 41 (peptide)
peptide: QRF[Pen]TGHFG[dR]LYPCNGP-NH2
modifications: disulfide 4-14; N-terminus assumed
SMILES: CC(C)C[C@@H]1NC(=O)[C@@H](CCCNC(=N)N)NC(=O)CNC(=O)[C@H](Cc2ccccc2)NC(=O)[C@H](Cc2c[nH]cn2)NC(=O)CNC(=O)[C@H]([C@@H](C)O)NC(=O)[C@@H](NC(=O)[C@H](Cc2ccccc2)NC(=O)[C@H](CCCNC(=N)N)NC(=O)[C@@H](N)CCC(N)=O)C(C)(C)SSC[C@@H](C(=O)N[C@@H](CC(N)=O)C(=O)NCC(=O)N2CCC[C@H]2C(N)=O)NC(=O)[C@@H]2CCCN2C(=O)[C@H](Cc2ccc(O)cc2)NC1=O
B4: Peptide No. 42 (peptide)
peptide: QRF[Pen]TGHFG[dH]LYPCNGP-NH2
modifications: disulfide 4-14; N-terminus assumed
SMILES: CC(C)C[C@@H]1NC(=O)[C@@H](Cc2c[nH]cn2)NC(=O)CNC(=O)[C@H](Cc2ccccc2)NC(=O)[C@H](Cc2c[nH]cn2)NC(=O)CNC(=O)[C@H]([C@@H](C)O)NC(=O)[C@@H](NC(=O)[C@H](Cc2ccccc2)NC(=O)[C@H](CCCNC(=N)N)NC(=O)[C@@H](N)CCC(N)=O)C(C)(C)SSC[C@@H](C(=O)N[C@@H](CC(N)=O)C(=O)NCC(=O)N2CCC[C@H]2C(N)=O)NC(=O)[C@@H]2CCCN2C(=O)[C@H](Cc2ccc(O)cc2)NC1=O
B5: Peptide No. 47 (peptide)
peptide: QRF[Pen]TGHF[dD]GLYPCNGP-NH2
modifications: disulfide 4-14; N-terminus assumed
SMILES: CC(C)C[C@@H]1NC(=O)CNC(=O)[C@@H](CC(=O)O)NC(=O)[C@H](Cc2ccccc2)NC(=O)[C@H](Cc2c[nH]cn2)NC(=O)CNC(=O)[C@H]([C@@H](C)O)NC(=O)[C@@H](NC(=O)[C@H](Cc2ccccc2)NC(=O)[C@H](CCCNC(=N)N)NC(=O)[C@@H](N)CCC(N)=O)C(C)(C)SSC[C@@H](C(=O)N[C@@H](CC(N)=O)C(=O)NCC(=O)N2CCC[C@H]2C(N)=O)NC(=O)[C@@H]2CCCN2C(=O)[C@H](Cc2ccc(O)cc2)NC1=O
B6: Peptide No. 44 (peptide)
peptide: QRF[Pen]TGHFG[dF]LYPCNGP-NH2
modifications: disulfide 4-14; N-terminus assumed
SMILES: CC(C)C[C@@H]1NC(=O)[C@@H](Cc2ccccc2)NC(=O)CNC(=O)[C@H](Cc2ccccc2)NC(=O)[C@H](Cc2c[nH]cn2)NC(=O)CNC(=O)[C@H]([C@@H](C)O)NC(=O)[C@@H](NC(=O)[C@H](Cc2ccccc2)NC(=O)[C@H](CCCNC(=N)N)NC(=O)[C@@H](N)CCC(N)=O)C(C)(C)SSC[C@@H](C(=O)N[C@@H](CC(N)=O)C(=O)NCC(=O)N2CCC[C@H]2C(N)=O)NC(=O)[C@@H]2CCCN2C(=O)[C@H](Cc2ccc(O)cc2)NC1=O
B7: Peptide No. 46 (peptide)
peptide: QRFCTGHFGXLYPCNGP
modifications: Pen 4; Aib (aminoisobutyric acid) 10; disulfide 4-14; C-terminal amide
B8: Peptide No. 217 (peptide)
peptide: RF[Pen]TGHF[dF][Sar][NMeL]YPC-NH2
modifications: disulfide 3-13; N-terminus assumed
SMILES: CC(C)C[C@H]1C(=O)N[C@@H](Cc2ccc(O)cc2)C(=O)N2CCC[C@H]2C(=O)N[C@H](C(N)=O)CSSC(C)(C)[C@H](NC(=O)[C@H](Cc2ccccc2)NC(=O)[C@@H](N)CCCNC(=N)N)C(=O)N[C@@H]([C@@H](C)O)C(=O)NCC(=O)N[C@@H](Cc2c[nH]cn2)C(=O)N[C@@H](Cc2ccccc2)C(=O)N[C@H](Cc2ccccc2)C(=O)N(C)CC(=O)N1C
B9: Peptide No. 59 (peptide)
peptide: QRFCTGHXGGLYPCNGP
modifications: Pen 4; 3-PyridylAla 8; disulfide 4-14; C-terminal amide
B10: Peptide No. 57 (peptide)
peptide: QRF[Pen]TGH[Phe(F5)]GGLYPCNGP-NH2
modifications: disulfide 4-14; N-terminus assumed
SMILES: CC(C)C[C@@H]1NC(=O)CNC(=O)CNC(=O)[C@H](Cc2c(F)c(F)c(F)c(F)c2F)NC(=O)[C@H](Cc2c[nH]cn2)NC(=O)CNC(=O)[C@H]([C@@H](C)O)NC(=O)[C@@H](NC(=O)[C@H](Cc2ccccc2)NC(=O)[C@H](CCCNC(=N)N)NC(=O)[C@@H](N)CCC(N)=O)C(C)(C)SSC[C@@H](C(=O)N[C@@H](CC(N)=O)C(=O)NCC(=O)N2CCC[C@H]2C(N)=O)NC(=O)[C@@H]2CCCN2C(=O)[C@H](Cc2ccc(O)cc2)NC1=O
B11: Peptide No. 55 (peptide)
peptide: QRF[Pen]TGH[Phe(4-NH2)]GGLYPCNGP-NH2
modifications: disulfide 4-14; N-terminus assumed
SMILES: CC(C)C[C@@H]1NC(=O)CNC(=O)CNC(=O)[C@H](Cc2ccc(N)cc2)NC(=O)[C@H](Cc2c[nH]cn2)NC(=O)CNC(=O)[C@H]([C@@H](C)O)NC(=O)[C@@H](NC(=O)[C@H](Cc2ccccc2)NC(=O)[C@H](CCCNC(=N)N)NC(=O)[C@@H](N)CCC(N)=O)C(C)(C)SSC[C@@H](C(=O)N[C@@H](CC(N)=O)C(=O)NCC(=O)N2CCC[C@H]2C(N)=O)NC(=O)[C@@H]2CCCN2C(=O)[C@H](Cc2ccc(O)cc2)NC1=O
B12: Peptide No. 90 (peptide)
peptide: QRF[Pen]TGH[Phe(4-Me)]GGLYPCNGP-NH2
modifications: disulfide 4-14; N-terminus assumed
SMILES: Cc1ccc(C[C@@H]2NC(=O)[C@H](Cc3c[nH]cn3)NC(=O)CNC(=O)[C@H]([C@@H](C)O)NC(=O)[C@@H](NC(=O)[C@H](Cc3ccccc3)NC(=O)[C@H](CCCNC(=N)N)NC(=O)[C@@H](N)CCC(N)=O)C(C)(C)SSC[C@@H](C(=O)N[C@@H](CC(N)=O)C(=O)NCC(=O)N3CCC[C@H]3C(N)=O)NC(=O)[C@@H]3CCCN3C(=O)[C@H](Cc3ccc(O)cc3)NC(=O)[C@H](CC(C)C)NC(=O)CNC(=O)CNC2=O)cc1
B13: Peptide No. 89 (peptide)
peptide: QRF[Pen]TGH[Phe(3-Me)]GGLYPCNGP-NH2
modifications: disulfide 4-14; N-terminus assumed
SMILES: Cc1cccc(C[C@@H]2NC(=O)[C@H](Cc3c[nH]cn3)NC(=O)CNC(=O)[C@H]([C@@H](C)O)NC(=O)[C@@H](NC(=O)[C@H](Cc3ccccc3)NC(=O)[C@H](CCCNC(=N)N)NC(=O)[C@@H](N)CCC(N)=O)C(C)(C)SSC[C@@H](C(=O)N[C@@H](CC(N)=O)C(=O)NCC(=O)N3CCC[C@H]3C(N)=O)NC(=O)[C@@H]3CCCN3C(=O)[C@H](Cc3ccc(O)cc3)NC(=O)[C@H](CC(C)C)NC(=O)CNC(=O)CNC2=O)c1
B14: Peptide No. 62 (peptide)
peptide: QRFCTGHXGGLYPCNGP
modifications: Pen 4; 2-napthylalanine 8; disulfide 4-14; C-terminal amide
B15: Peptide No. 43 (peptide)
peptide: QRF[Pen]TGHFG[dI]LYPCNGP-NH2
modifications: disulfide 4-14; N-terminus assumed
SMILES: CC[C@@H](C)[C@H]1NC(=O)CNC(=O)[C@H](Cc2ccccc2)NC(=O)[C@H](Cc2c[nH]cn2)NC(=O)CNC(=O)[C@H]([C@@H](C)O)NC(=O)[C@@H](NC(=O)[C@H](Cc2ccccc2)NC(=O)[C@H](CCCNC(=N)N)NC(=O)[C@@H](N)CCC(N)=O)C(C)(C)SSC[C@@H](C(=O)N[C@@H](CC(N)=O)C(=O)NCC(=O)N2CCC[C@H]2C(N)=O)NC(=O)[C@@H]2CCCN2C(=O)[C@H](Cc2ccc(O)cc2)NC(=O)[C@H](CC(C)C)NC1=O

Bridge positions count the residues as written; N and C are the ends. Square brackets hold non-standard residues; d marks the D form. Ends that are not written are not given here. Phe(F5) = N[C@@H](Cc1c(F)c(F)c(F)c(F)c1F)C(=O)O; Phe(4-NH2) = Nc1ccc(C[C@H](N)C(=O)O)cc1; Phe(3-Me) = Cc1cccc(C[C@H](N)C(=O)O)c1; Phe(4-Me) = Cc1ccc(C[C@H](N)C(=O)O)cc1; NMeL = CN[C@@H](CC(C)C)C(=O)O; Pen = CC(C)(S)[C@H](N)C(=O)O; hCys = N[C@@H](CCS)C(=O)O; Sar = CNCC(=O)O

One assay deals with T1, soluble human FcRn (shFcRn) (human, UniProt P55899 24-297; P61769 21-119).
T1 construct: Biotinylated for the ELISA, amine-coupled to a CM5 chip for SPR; also called biotinylated shFcRn
T1 sequence (P55899 24-297 limits assumed, chain 1 of 2): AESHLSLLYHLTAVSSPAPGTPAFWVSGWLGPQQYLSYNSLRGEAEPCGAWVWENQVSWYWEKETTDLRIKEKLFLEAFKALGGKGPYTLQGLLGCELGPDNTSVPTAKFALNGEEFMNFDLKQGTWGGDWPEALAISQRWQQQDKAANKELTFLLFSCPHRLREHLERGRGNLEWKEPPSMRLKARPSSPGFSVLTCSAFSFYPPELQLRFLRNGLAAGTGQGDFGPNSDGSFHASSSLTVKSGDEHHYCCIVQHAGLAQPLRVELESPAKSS
T1 sequence (P61769 21-119 limits assumed, chain 2 of 2): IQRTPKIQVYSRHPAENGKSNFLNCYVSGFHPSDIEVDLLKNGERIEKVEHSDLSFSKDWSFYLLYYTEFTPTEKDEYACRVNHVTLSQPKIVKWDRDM
The assay can be described thus: SPR pH 6.
Experimental: (§1) The following steps were performed to cross-link soluble human or cynomolgus FcRn to the dextran surface of a CM5 sensor chip (Biacore AB, Uppsala, Sweden) by an amine coupling reaction involving 1-ethyl-(3-dimethylaminopropyl)-carbodiimide hydrochloride (EDC) (Biacore AB, Uppsala, Sweden) and N-hydroxysuccinimide (NHS) (Biacore AB, Uppsala, Sweden) as recommended by Biacore (BIAapplications Handbook, version AB, section 4.2, Biacore AB, Uppsala, Sweden). […] Residual sites on the FcRn flow cell were blocked with 1 M ethanolamine hydrochloride pH 8.5 (Biacore AB, Uppsala, Sweden). A control flow cell was blocked with ethanolamine for reference subtraction. For analysis of the monomeric peptides, FcRn was coated to a final density of 4000-5000 response units (RU). For analysis of the peptide dimers, FcRn was coated to a density of 2000-2500 RU. All SPR measurements were performed using a BIACORE 3000 Instrument (Biacore AB Uppsala, Sweden). For measurements done at either pH 6 or pH 7.4, experiments were performed in 50 mM phosphate, 100 mM sodium chloride, 0.01% surfactant P20 (Biacore AB, Uppsala, Sweden).
(§2) Ten, 2-fold dilutions of the peptide were injected over the FcRn-CM5 chip at a rate of 20 μl/min for 2 min. The peptide was dissociated from the chip for 2.5 minutes with buffer. Any remaining peptide was removed from the chip with a 30 second injection of HBS-P buffer (Biacore AB, Uppsala, Sweden) at a rate of 30 μl/min. Sensorgrams were generated and analyzed using BiaEval software version 3.1 (Biacore AB, Uppsala, Sweden). The equilibrium RU observed for each injection was plotted against concentration. The equilibrium KD values were derived by analysis of the plots using the steady state affinity model included in the BiaEval software.
By Kd is commonly meant the concentration at which binding is half-saturated. A lower Kd goes with higher affinity. On to B1, for which the Kd turned out to be 0.28 µM.

B2: the Kd is 2.1 µM.

Another assay concerns the target T1, soluble human FcRn (shFcRn). Put plainly: SPR pH 6. The source holds these as a separate data set.
Experimental: as §1, §2
B3 returned a Kd of 0.83 µM. This lies in the sub-micromolar range.

In turn, B4 registered a Kd of 2 µM.

The molecule B5 showed a Kd of 0.58 µM.

The molecule B6 showed a Kd of 1.7 µM. This Kd lies about 2.9-fold higher than the previous one.

Regarding B7, the Kd was determined as 0.48 µM.

Another assay shares this target. The assay can be described thus: SPR pH 6. The source holds these as a separate data set.
Experimental: as §1, §2
As to B8, binding was put at a Kd of 1.4 µM.

For a further assay the target is unchanged. The assay can be described thus: SPR pH 6. This is another data set of the same source.
Experimental: as §1, §2
B9 yielded a Kd of 19 µM.

Turning to B10, the Kd was 70 µM.

In turn, B11 gave a Kd of 1 µM.

B12 gave an equilibrium dissociation constant (Kd) of 0.2 µM.

B13: the dissociation constant Kd was 0.67 µM.

Turning to B14, the affinity, expressed as Kd, was 11 µM.

The target is the same in a further assay. The assay can be described thus: SPR pH 7.4.
Experimental: as §1, §2
Consider B3, for which the Kd stood at 8.8 µM.

For B4, the Kd came out at 20 µM.

Take B5: the Kd came to 4.9 µM.

The molecule B15 displayed a Kd of 41 µM.

In turn, B6 gave a Kd of 100 µM.

For the molecule B7, binding was put at a Kd of 5.3 µM. Against the preceding molecule, the Kd is about 19-fold lower.

The next assay has the same target. Put plainly: IgG competition ELISA. In general terms: In an ELISA, binding on a coated surface is turned into a signal by an enzyme label.
Experimental: The wells were coated with 100 μl/well of 1 μg/ml biotinylated-shFcRn in Buffer A. The plate was sealed and incubated at 37° C. for 2 hours. Afterwards, the plate was washed with 200 μl/well of Buffer B (Buffer B: 100 mM MES pH 6, 150 mM NaCl, 0.5% BSA IgG-free (Jackson ImmunoResearch, West Grove, Pa.), 0.05% Tween-20). […] To allow for mixing, the plate was rocked for 2 minutes, sealed and incubated at 37° C. for 2 hours. […] The plate was covered, incubated for 30 minutes at room temperature and washed 4 times with 200 μl/well of ice-cold buffer B. SureBlue TMB substrate solution (100 μl/well, KPL, Gaithersburg, Md.) was added and the plate was allowed to incubate at room temperature until color developed, which took 5 to 10 minutes. Once color developed, 100 μl/well of TMB stop solution (KPL, Gaithersburg, Md.) was added and the absorbance was measured at 450 nm. The data was plotted as absorbance vs. peptide concentration to derive the inhibitory concentration 50% (IC₅₀) values.
One may read the IC50 as the midpoint of a concentration-inhibition curve. Read a low IC50 as inhibition by little substance. Molecule B1 showed a 50% inhibitory concentration (IC50) of 1.6 µM.

For the next assay the target is unchanged. The assay can be described thus: IgG competition ELISA. This is another data set of the same source.
B3 yielded an IC50 of 8.1 µM.

For the molecule B15, the IC50 came to 18 µM.

B7 showed an IC50 of 2.4 µM.

The target is the same in a further assay. The assay can be described thus: IgG competition ELISA. The source holds these as a separate data set.
In turn, B9 showed an IC50 of 60 µM.

For B13, the IC50 was determined as 4.1 µM.

For B14, the half-inhibitory concentration (IC50) is 90 µM. Compared with the last molecule, the IC50 is about 22-fold higher.
